Assay results taken from patent publication US20240382677A1.

Key:
[1] = target: full length human PD-1 on HEK293/hPD-1 cells (human); assay: FACS, 100 nM antibody
[2] = target: full length human PD-1 on HEK293/hPD-1 cells (human); assay: FACS dose response, HEK293/hPD-1 cells
[3] = target: full length human PD-1 on HEK293/hPD-1 cells (human); assay: FACS dose response, HEK293/hPD-1 cells; No EC50 determined
[4] = target: full length human PD-1 on HEK293/hPD-1 cells (human); assay: FACS, 100 nM antibody, HEK293/hPD-1 cells
[5] = target: full length human PD-1 on HEK293/hPD-1 cells (human); assay: FACS dose response, HEK293/hPD-1 cells; EC50 Inconclusive

| Binder | ratio of HEK293/hPD-1 to HEK293 parental cells [1] | EC50 [2] | Max Geom. Mean MFI @ 100 nM [2] | Max Geom. Mean MFI @ 100 nM [3] | MFI [4] | Max Geom. Mean MFI @ 100 nM [5] |
| --- | --- | --- | --- | --- | --- | --- |
| H2aM7796N (antibody, mouse IgG2a, V domains shown) VH: QVQLVESGGGVVQPGRSLRLSCAASGFTFSSYGMHWVRQAPGKGLEWVAIIWSDGDSEYNLDSVKGRFTISRDNSKNTLYLQMNSLRVEDSAVYYCARDRDLEDIWGQGTMVTVSS VL: DIQMTQSPSSLSASVGDRVTITCRASQGIRNDLGWYQQKPGKAPKRLIYAASNLQSGVPSRFSGSGSGTEFTLTISSLQPEDFATYYCLQHNSYPLTFGGGTKVEIK | 168 fold | 4.81 nM | 14100 MFI | 624 MFI | 49800 MFI |  |
| H2aM7791N (antibody, mouse IgG2a, V domains shown) VH: QMQLQQWGAGLLKPSETLSLTCVVYGGSLNGYYWSWIRQSPGKGLEWIGEIDHSGSTNYNPSLKNRVTMSVDTSKIQFSLKLTSVTVADTAVYYCAREGLLPFDYWGQGTLVTVSS VL: EIVLTQSPGTLSLSPGERVTLSCRASQSVYSNYLAWYQQNPGQAPRLLIYAASNRATGIPDRFSGSGSGTDFTLTISRLEPEDFAVYYCHQYATSPWTFGQGTKVEIK | 18 fold |  |  | 1400 MFI | 4950 MFI |  |
| H2aM7795N (antibody, mouse IgG2a, V domains shown) VH: EVQVVESGGGLVEPGRSLRLSCKASGFTFDDYAMHWVRQTPGKALEWVSGINWSGNNIGYADSVKGRFTISKDDAKNSLYLQMNSLRPEDTALYYCTKDISITGTLDAFDVWGQGTMVTVSS VL: DIQMTQSPISVSASVGDRVTITCRASQGISNWLAWYQQKPGIAPKLLIYSASSLQSGVPSRFRGSGSGTDFTLTIGSLQPEDFATYYCQQAHSFPLTFGGGTKVEIK | 2.8 fold |  |  |  | 817 MFI |  |
| H1M7789N (antibody, mouse IgG1, V domains shown) VH: EVQLLESGGGLVQPGGSLRLSCSASGFTFSSYTMNWVRQAPGKGLEWVSGISDTGGNTYYTDSVKGRFTVSRDNSKNTLSLQMNSLRAEDTAVYYCAKDQGGSYPYYFHYWGQGSLVTVSS VL: DIQMTQSPSSLSASVGDRVTITCRASQSISSYLIWYQQKPGTAPKFLIYAASSLQSGVPSRFSGCGSGTDFTLTISSLQPEDFATYYCQQSYSTPPITFGQGTRLEIK | 92.3 fold |  |  |  | 24200 MFI | 35600 MFI |
| H2aM7780N (antibody, mouse IgG2a, V domains shown) VH: QVQLVESGGGVVQSGRSLRLSCAASGFTFSSYGMHWVRQAPGKGLEWVAVIWYDGSNIYYSDSVKGRFTISRANSKNTLYLQMNSLRAEDTAVYYCARPGHWNYFFEYWGQGTLVTVSS VL: DIQMTQSPSSLSASVGDRVTITCRASQSINNYLNWYQQKPGKAPKLLIYTASSLQSGVPSRFSGSGSGTDFTLTISSLQPEDFATYYCQQSYSTPPLTFGQGTQLEIK | 73.8 fold | 1.69 nM | 18400 MFI |  | 23700 MFI |  |

Further lines, results first:

| ratio of HEK293/hPD-1 to HEK293 parental cells [1] | EC50 [2] | Max Geom. Mean MFI @ 100 nM [2] | Max Geom. Mean MFI @ 100 nM [3] | MFI [4] | Max Geom. Mean MFI @ 100 nM [5] | Binder |
| --- | --- | --- | --- | --- | --- | --- |
| 78.1 fold | 0.0698 nM | 20900 MFI |  | 23400 MFI |  | H2aM7798N (antibody, mouse IgG2a, V domains shown) VH: EVQLLESGGVLVQPGGSLRLSCAASGFTFSNFGMTWVRQAPGKGLEWVSGISGGGRDTYFADSVKGRFTISRDNSKNTLYLQMNSLKGEDTAVYYCVKWGNIYFDYWGQGTLVTVSS VL: DIQMTQSPSSLSASVGDSITITCRASLSINTFLNWYQQKPGKAPNLLIYAASSLHGGVPSRFSGSGSGTDFTLTIRTLQPEDFATYYCQQSSNTPFTFGPGTVVDFR |
|  | 0.509 nM | 20300 MFI |  |  |  | H4H7798N (antibody, human IgG4 S228P, kappa, V domains shown) VH: EVQLLESGGVLVQPGGSLRLSCAASGFTFSNFGMTWVRQAPGKGLEWVSGISGGGRDTYFADSVKGRFTISRDNSKNTLYLQMNSLKGEDTAVYYCVKWGNIYFDYWGQGTLVTVSS VL: DIQMTQSPSSLSASVGDSITITCRASLSINTFLNWYQQKPGKAPNLLIYAASSLHGGVPSRFSGSGSGTDFTLTIRTLQPEDFATYYCQQSSNTPFTFGPGTVVDFRR |
|  |  |  |  |  | 15200 MFI | H4H7795N2 (antibody, human IgG4 S228P, kappa, V domains shown) VH: EVQVVESGGGLVEPGRSLRLSCKASGFTFDDYAMHWVRQTPGKALEWVSGISWSGNNIGYADSVKGRFTISKDDAKNSLYLQMNSLRPEDTALYYCTKDISITGTLDAFDVWGQGTMVTVSS VL: DIQMTQSPISVSASVGDRVTITCRASQGISNWLAWYQQKPGIAPKLLIYSASSLQSGVPSRFRGSGSGTDFTLTIGSLQPEDFATYYCQQAHSFPLTFGGGTKVEIKR |
